These are literature values, as cited in PMC6143667.

The data set has as its target PKA catalytic subunit (UniProt P17612).

For orientation: Kd means the concentration at which binding is half-saturated. In the case of “PKA regulatory subunit RII (from UniProt P31323)”, the Kd is 0.1 nM.
